What all share (type): biochemical
The target of one assay is T1, DP4 variant E205A (Homo sapiens, UniProt P27487, E205A).
T1 construct: His(6)-37-766 hDP4 containing fractions were concentrated to 1 ml as described above; His6 (N); made in house; host or cells: Pichia pastoris X-33, vector pPICZα C (secreted)
The assay can be described thus: Km and kcat determination by LC/MS-MS assay. As to conditions: hydrolysis of peptide hormone, 10 mM Tris-buffer (pH 7.6), T = 30 °C. As for the experimental part: (§1) Therefore, DP4 was incubated with different substrate concentrations in 10 mM Tris-buffer pH 7.6 at 30°C. Enzyme concentrations and incubation times were chosen to obtain a linear product formation. After selected time points, samples were taken and the reaction stopped by addition of 19 volumes 0,1% HCOOH. Cleavage products were quantified in the respective samples by LC/MS-MS assay.

The next assay deals with T2, DP4 variant E206A (Homo sapiens, UniProt P27487, E206A).
T2 construct: His(6)-37-766 hDP4 containing fractions were concentrated to 1 ml as described above; His6 (N); made in house; host or cells: Pichia pastoris X-33, vector pPICZα C (secreted)
T2 sequence (P27487 37-766 E206A): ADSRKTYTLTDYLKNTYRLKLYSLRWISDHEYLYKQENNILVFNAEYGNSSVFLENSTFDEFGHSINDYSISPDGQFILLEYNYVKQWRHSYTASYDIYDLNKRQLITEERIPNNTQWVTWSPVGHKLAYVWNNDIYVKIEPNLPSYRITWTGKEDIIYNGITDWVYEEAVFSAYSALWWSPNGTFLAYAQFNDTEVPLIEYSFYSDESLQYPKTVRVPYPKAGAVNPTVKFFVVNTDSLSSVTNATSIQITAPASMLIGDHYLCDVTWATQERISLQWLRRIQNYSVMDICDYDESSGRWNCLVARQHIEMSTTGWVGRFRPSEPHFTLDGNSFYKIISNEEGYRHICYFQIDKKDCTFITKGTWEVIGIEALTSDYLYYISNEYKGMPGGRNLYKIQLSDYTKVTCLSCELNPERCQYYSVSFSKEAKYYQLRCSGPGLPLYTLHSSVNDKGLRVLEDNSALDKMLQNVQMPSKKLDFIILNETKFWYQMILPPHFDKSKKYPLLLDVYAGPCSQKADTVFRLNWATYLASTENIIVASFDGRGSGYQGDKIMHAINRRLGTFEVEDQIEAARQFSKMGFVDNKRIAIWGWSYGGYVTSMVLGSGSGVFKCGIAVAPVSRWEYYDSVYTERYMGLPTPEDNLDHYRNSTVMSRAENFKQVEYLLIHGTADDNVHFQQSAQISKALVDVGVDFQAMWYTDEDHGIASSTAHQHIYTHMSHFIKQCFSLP
In words: Km and kcat determination by LC/MS-MS assay. As to conditions: hydrolysis of peptide hormone, 10 mM Tris-buffer (pH 7.6), T = 30 °C. How it is done: as §1

A further assay has as its target T3, DP4 variant N710A (Homo sapiens, UniProt P27487, N710A).
T3 construct: His(6)-37-766 hDP4 containing fractions were concentrated to 1 ml; made in house; host or cells: Pichia pastoris X-33 (vector pPICZα C, secreted)
The assay can be described thus: Km and kcat determination by LC/MS-MS assay. The conditions noted are these: hydrolysis of peptide hormone, 10 mM Tris-buffer (pH 7.6), T = 30 °C. How it is done:
as §1

For a further assay, the target named is T4, DP4 variant N710D (Homo sapiens, UniProt P27487, N710D).
T4 construct: His(6)-37-766 hDP4 containing fractions were concentrated to 1 ml; made in house; host or cells: Pichia pastoris X-33 (vector pPICZα C, secreted)
T4 sequence (P27487 37-766 N710D): as the sequence (P27487 37-766 E206A) above, with A170E, N674D counted along it
The assay can be described thus: Km and kcat determination by LC/MS-MS assay. As to conditions: hydrolysis of peptide hormone, 10 mM Tris-buffer (pH 7.6), T = 30 °C. As for the experimental part: as §1

Another assay concerns the target T5, DP4 variant N710Q (Homo sapiens, UniProt P27487, N710Q).
T5 construct: His(6)-37-766 hDP4 containing fractions were concentrated to 1 ml; made in house; host or cells: Pichia pastoris X-33 (vector pPICZα C, secreted)
The assay can be described thus: Km and kcat determination by LC/MS-MS assay. As to conditions: hydrolysis of peptide hormone, 10 mM Tris-buffer (pH 7.6), T = 30 °C. As for the experimental part: as §1

The target of the next assay is T6, DP4 variant R125A (Homo sapiens, UniProt P27487, R125A).
T6 construct: His(6)-37-766 hDP4 containing fractions were concentrated to 1 ml; made in house; host or cells: Pichia pastoris X-33 (vector pPICZα C, secreted)
T6 sequence (P27487 37-766 R125A): as the sequence (P27487 37-766 E206A) above, with R89A, A170E counted along it
The assay can be described thus: Km and kcat determination by LC/MS-MS assay. The conditions noted are these: hydrolysis of peptide hormone, 10 mM Tris-buffer (pH 7.6), T = 30 °C. How it is done: as §1

The target in assay [1] is T7, DP4 variant R125K (Homo sapiens, UniProt P27487, R125K).
T7 construct: His(6)-37-766 hDP4 containing fractions were concentrated to 1 ml; made in house; host or cells: Pichia pastoris X-33 (vector pPICZα C, secreted)
T7 sequence (P27487 37-766 R125K): as the sequence (P27487 37-766 E206A) above, with R89K, A170E counted along it
The assay can be described thus: Km and kcat determination by LC/MS-MS assay. As to conditions: hydrolysis of peptide hormone, 10 mM Tris-buffer (pH 7.6), T = 30 °C. As for the experimental part: as §1

In assay [2] the target is T8, wild type DP4 (Homo sapiens, UniProt P27487).
T8 construct: His(6)-37-766 hDP4 containing fractions were concentrated to 1 ml; made in house; host or cells: Pichia pastoris X-33 (vector pPICZα C, secreted)
T8 sequence (P27487 37-766): as the sequence (P27487 37-766 E206A) above, with A170E counted along it
The assay can be described thus: Km and kcat determination by LC/MS-MS assay. The conditions noted are these: hydrolysis of peptide hormone, 10 mM Tris-buffer (pH 7.6), T = 30 °C. As for the experimental part:
as §1

Assay [3] concerns the target T7, DP4 variant R125K. In words: Cleavage of peptide hormones by MALDI-TOF mass spectrometry. Also noted: key: +++: hydrolysis is comparable with the data obtained from the wild type enzyme; -: hydrolysis below 0,01% of the wild type enzyme. The conditions noted are these: T = 37 °C, 100 mM Tris-HCl, pH 7.6, substrate concentration 25 μM. As for the experimental part:
(§2) Enzyme concentration 5 x 10^−9 M, substrate concentration 25 μM, reaction time 1–3 hours, depending on the respective hydrolysis rate. Reactions were stopped by addition of 1 volume DHAP/DAHC-matrix, dissolved in 50% (v/v) acetonitrile, after certain time points. The matrix-sample mixture was placed in a vacuum, which caused the proteins to crystallize together with the matrix. Using the mass spectrometer "LD-TOF System G2025" from Hewlett Packard, the relative amount of substrate and respective product peaks in the samples could be determined. Relative hydrolysis rates were depicted by plotting relative substrate concentration against time.

Assay [4] concerns the target T8, wild type DP4. The assay is described as above. Also noted: key: +++: hydrolysis is comparable with the data obtained from the wild type enzyme; -: hydrolysis below 0,01% of the wild type enzyme. The conditions noted are these: T = 37 °C, 100 mM Tris-HCl, pH 7.6, substrate concentration 25 μM. As for the experimental part:
as §2

T5 sequence (P27487 37-766 N710Q): as the sequence (P27487 37-766 E206A) above, with A170E, N674Q counted along it
T3 sequence (P27487 37-766 N710A): as the sequence (P27487 37-766 E206A) above, with A170E, N674A counted along it
T1 sequence (P27487 37-766 E205A): as the sequence (P27487 37-766 E206A) above, with E169A, A170E counted along it

On to “NP Y: physiological DP4 substrate, peptide hormone, proline in P1 position (H2N-Y-P-S…)”, for which the Michaelis-Menten constant (Km) with DP4 variant E205A is 180 µM; with DP4 variant E206A, 98 µM; in the assay with DP4 variant N710A, 83 µM; in the assay with DP4 variant N710D it was 190 µM; with DP4 variant N710Q, 510 µM; in the assay with DP4 variant R125A, 150 µM. The results for the Michaelis constant (Km) with DP4 variant R125K [1] and with wild type DP4 [2] were 52 µM and 13 µM, respectively. Also, the turnover number (kcat) came to 11 ± 0.7 s⁻¹ in the assay with DP4 variant E205A; 1.8 ± 0.08 s⁻¹ with DP4 variant N710A; 12 ± 0.9 s⁻¹ with DP4 variant N710D; 2.0 ± 0.32 s⁻¹ in the assay with DP4 variant N710Q; 23 ± 0.9 s⁻¹ with DP4 variant R125A; 32 ± 0.5 s⁻¹ with DP4 variant R125K [1]. For the same substance, the kcat with wild type DP4 [2] was determined as 37 ± 2.7 s⁻¹. In addition, the “Hydrolysis of peptide hormone in comparison to the DP4 wild type enzyme” value in the assay with DP4 variant R125K [3] and with wild type DP4 [4] was “+++” each time.
